Like-named read-outs stand apart in the source and are kept apart here.

One experiment relates to T1, gp11.
T1 construct: E. coli BL21(DE3)
Briefly: coupled pyruvate kinase / lactate dehydrogenase assay, NADH absorbance at […] nm. It is filed as biochemical, Lactococcus phage asccphi28. To be noted: 0.1 µM gp11, 50 mM Tris pH 7.5, 72 mM KCl, 7.2 mM MgSO4, 2 mM PEP, 0.3 mM NADH.

Experiment [1] concerns the target gene product 11 (gp11), DNA packaging ATPase from Lactococcus lactis phage asccφ28 (Lactococcus lactis phage asccφ28). Description: AUC; sedimentation velocity, data not shown.
For experiment [2] the target is unchanged. Briefly: SEC. On the technique in general: Size exclusion chromatography separates by hydrodynamic size, large species first.
The target is the same in experiment [3]. Briefly: AUC.

Turning to `Nc1ncnc2c1ncn2[C@@H]1O[C@H](COP(=O)(O)OP(=O)(O)OP(=O)(O)O)[C@@H](O)[C@H]1O` [ATP], in the experiment with gp11 (read-out: ATP), the Km is 28 µM. With `Nc1nc2c(ncn2[C@@H]2O[C@H](COP(=O)(O)OP(=O)(O)OP(=O)(O)O)[C@@H](O)[C@H]2O)c(=O)[nH]1` [GTP], in the experiment on gp11 (read-out: GTP), the Km turned out to be 344 µM.

As usually defined, the stoichiometry N is a count of units in the complex or per binding partner. Consider “gene product 11 (gp11), DNA packaging ATPase from Lactococcus lactis phage asccφ28 (enzyme)”, for which the stoichiometry N in experiment [1] was 10 monomers; in experiment [2], 4 to 15 copies; in experiment [3], 10 monomers.

The values are drawn from PMC7823558 (Viruses, 2020).
